The source of these data is the Human Domainome abundance scans (Beltran et al. 2025).

± gives the uncertainty stated by the source.

B1: Triacylglycerol hydrolase DDHD2, residues 389 to 447; numbered along this chain, O94830 (parent)
chain: TLEEDLKKLQLSEFFDIFEKEKVDKEALALCTDRDLQEIGIPLGPRKKILNYFSTRKNS

Variants of B1 are the subject of this series. As to the kind of experiment: abundance fitness (aPCA) (normalised: wild type 0, dead -1); higher = more abundant; growth selection in yeast, the domain comes from the species named. Conditions: Homo sapiens.
For TLEEDLKKLQLSEFFDIFEKEKVDNEALALCTDRDLQEIGIPLGPRKKILNYFSTRKNS [K25N], the abundance fitness was -0.494 ± 0.16. To TLEEDLKKLQLSEFFDIFEKEKVDQEALALCTDRDLQEIGIPLGPRKKILNYFSTRKNS [K25Q] belongs -0.285 ± 0.097. Under TLEEDLKKLQLSEFFDIFEKEKVDWEALALCTDRDLQEIGIPLGPRKKILNYFSTRKNS [K25W] stands -0.329 ± 0.086; under TLEEDLKKLQLSEFFDIFEKEKVDIEALALCTDRDLQEIGIPLGPRKKILNYFSTRKNS [K25I], -0.041 ± 0.14. Regarding TLEEDLKKLQLSEFFDIFEKEKVDMEALALCTDRDLQEIGIPLGPRKKILNYFSTRKNS [K25M], the abundance fitness was determined as 0.086 ± 0.096.

Consider TLEEDLKKLQLSEFFDIFEKEKVDDEALALCTDRDLQEIGIPLGPRKKILNYFSTRKNS [K25D], for which the abundance fitness was -0.027 ± 0.1. Under TLEEDLKKLQLSEFFDIFEKEKVDAEALALCTDRDLQEIGIPLGPRKKILNYFSTRKNS [K25A] stands -0.05 ± 0.086; under TLEEDLKKLQLSEFFDIFEKEKVDLEALALCTDRDLQEIGIPLGPRKKILNYFSTRKNS [K25L], 0.03 ± 0.072.

For the variant TLEEDLKKLQLSEFFDIFEKEKVDHEALALCTDRDLQEIGIPLGPRKKILNYFSTRKNS [K25H], the abundance fitness was determined as 0.159 ± 0.15. To TLEEDLKKLQLSEFFDIFEKEKVDGEALALCTDRDLQEIGIPLGPRKKILNYFSTRKNS [K25G] belongs 0.083 ± 0.059; to TLEEDLKKLQLSEFFDIFEKEKVDFEALALCTDRDLQEIGIPLGPRKKILNYFSTRKNS [K25F], -0.078 ± 0.14; to TLEEDLKKLQLSEFFDIFEKEKVDEEALALCTDRDLQEIGIPLGPRKKILNYFSTRKNS [K25E], 0.293 ± 0.08. Under TLEEDLKKLQLSEFFDIFEKEKVDREALALCTDRDLQEIGIPLGPRKKILNYFSTRKNS [K25R] stands -0.053 ± 0.06.

For TLEEDLKKLQLSEFFDIFEKEKVDVEALALCTDRDLQEIGIPLGPRKKILNYFSTRKNS [K25V], the abundance fitness stood at 0.027 ± 0.07. Under TLEEDLKKLQLSEFFDIFEKEKVDPEALALCTDRDLQEIGIPLGPRKKILNYFSTRKNS [K25P] stands -0.048 ± 0.11. To TLEEDLKKLQLSEFFDIFEKEKVDTEALALCTDRDLQEIGIPLGPRKKILNYFSTRKNS [K25T] belongs -0.302 ± 0.1. Under TLEEDLKKLQLSEFFDIFEKEKVDSEALALCTDRDLQEIGIPLGPRKKILNYFSTRKNS [K25S] stands -0.088 ± 0.075; under TLEEDLKKLQLSEFFDIFEKEKVMKEALALCTDRDLQEIGIPLGPRKKILNYFSTRKNS [D24M], -0.286 ± 0.13. TLEEDLKKLQLSEFFDIFEKEKVRKEALALCTDRDLQEIGIPLGPRKKILNYFSTRKNS [D24R]: the abundance fitness was -0.396 ± 0.096. Under TLEEDLKKLQLSEFFDIFEKEKVSKEALALCTDRDLQEIGIPLGPRKKILNYFSTRKNS [D24S] stands 0.466 ± 0.082; under TLEEDLKKLQLSEFFDIFEKEKVFKEALALCTDRDLQEIGIPLGPRKKILNYFSTRKNS [D24F], -0.033 ± 0.13. To TLEEDLKKLQLSEFFDIFEKEKVCKEALALCTDRDLQEIGIPLGPRKKILNYFSTRKNS [D24C] belongs -0.087 ± 0.16; to TLEEDLKKLQLSEFFDIFEKEKVNKEALALCTDRDLQEIGIPLGPRKKILNYFSTRKNS [D24N], 0.155 ± 0.12; to TLEEDLKKLQLSEFFDIFEKEKVEKEALALCTDRDLQEIGIPLGPRKKILNYFSTRKNS [D24E], -0.023 ± 0.12.

Turning to TLEEDLKKLQLSEFFDIFEKEKVTKEALALCTDRDLQEIGIPLGPRKKILNYFSTRKNS [D24T], the abundance fitness came out at 0.494 ± 0.11.

For the variant TLEEDLKKLQLSEFFDIFEKEKVLKEALALCTDRDLQEIGIPLGPRKKILNYFSTRKNS [D24L], the abundance fitness is -0.881 ± 0.13.

Consider TLEEDLKKLQLSEFFDIFEKEKVYKEALALCTDRDLQEIGIPLGPRKKILNYFSTRKNS [D24Y], for which the abundance fitness was -0.627 ± 0.2. Under TLEEDLKKLQLSEFFDIFEKEKVIKEALALCTDRDLQEIGIPLGPRKKILNYFSTRKNS [D24I] stands -1.2 ± 0.37; under TLEEDLKKLQLSEFFDIFEKEKVQKEALALCTDRDLQEIGIPLGPRKKILNYFSTRKNS [D24Q], -0.044 ± 0.15. Under TLEEDLKKLQLSEFFDIFEKEKVVKEALALCTDRDLQEIGIPLGPRKKILNYFSTRKNS [D24V] stands -0.707 ± 0.12.

Regarding TLEEDLKKLQLSEFFDIFEKEKVAKEALALCTDRDLQEIGIPLGPRKKILNYFSTRKNS [D24A], the abundance fitness is 0.026 ± 0.1.

As to TLEEDLKKLQLSEFFDIFEKEKVWKEALALCTDRDLQEIGIPLGPRKKILNYFSTRKNS [D24W], the abundance fitness was -0.888 ± 0.2. To TLEEDLKKLQLSEFFDIFEKEKVHKEALALCTDRDLQEIGIPLGPRKKILNYFSTRKNS [D24H] belongs -0.587 ± 0.26. Under TLEEDLKKLQLSEFFDIFEKEKVKKEALALCTDRDLQEIGIPLGPRKKILNYFSTRKNS [D24K] stands -0.115 ± 0.097; under TLEEDLKKLQLSEFFDIFEKEKVPKEALALCTDRDLQEIGIPLGPRKKILNYFSTRKNS [D24P], -0.561 ± 0.18; under TLEEDLKKLQLSEFFDIFEKEKYDKEALALCTDRDLQEIGIPLGPRKKILNYFSTRKNS [V23Y], 0.451 ± 0.12.

As to TLEEDLKKLQLSEFFDIFEKEKWDKEALALCTDRDLQEIGIPLGPRKKILNYFSTRKNS [V23W], the abundance fitness was 0.593 ± 0.071. Under TLEEDLKKLQLSEFFDIFEKEKTDKEALALCTDRDLQEIGIPLGPRKKILNYFSTRKNS [V23T] stands -0.231 ± 0.1.

For TLEEDLKKLQLSEFFDIFEKEKSDKEALALCTDRDLQEIGIPLGPRKKILNYFSTRKNS [V23S], the abundance fitness was -0.391 ± 0.083. Under TLEEDLKKLQLSEFFDIFEKEKVDKAALALCTDRDLQEIGIPLGPRKKILNYFSTRKNS [E26A] stands -0.052 ± 0.086; under TLEEDLKKLQLSEFFDIFEKEKVDKGALALCTDRDLQEIGIPLGPRKKILNYFSTRKNS [E26G], 0.27 ± 0.063. Under TLEEDLKKLQLSEFFDIFEKEKVDKDALALCTDRDLQEIGIPLGPRKKILNYFSTRKNS [E26D] stands 0.002 ± 0.12; under TLEEDLKKLQLSEFFDIFEKEKVDKHALALCTDRDLQEIGIPLGPRKKILNYFSTRKNS [E26H], 0.153 ± 0.13; under TLEEDLKKLQLSEFFDIFEKEKVDKIALALCTDRDLQEIGIPLGPRKKILNYFSTRKNS [E26I], -0.219 ± 0.16. Under TLEEDLKKLQLSEFFDIFEKEKVDKFALALCTDRDLQEIGIPLGPRKKILNYFSTRKNS [E26F] stands -0.223 ± 0.14.
